Results reported in US20050202450A1 (US Dept. of Health and Human Services, published 2005).

B5: Gal4-HIF1α(498-603) (other)
chain: MKLLSSIEQACDICRLKKLKCSKEKPKCAKCLKNNWECRYSPKTKRSPLTRAHLTEVESRLERLEQLFLLIFPREDLDMILKMDSLQDIKALLTGLFVQDNVNKDAVTDRLASVETDMPLTLRQHRISATSSSEESSNKGQRQLTVSTPSPSDGSTRQSSPEPNSPSEYCFYVDSDMVNEFKLELVEKLFAEDTEAKNPFSTQDTDLDLEMLAPYIPMDDDFQLRSFDQLSPLESSSASPESASPQSTVTVFQ
notes: also called Gal4-C-ODD; C-ODD

Tests used:
[1] = target: T1, VHL protein (endogenous, in Hep3B / 293 cell extracts) (UniProt P40337 1-213, limits assumed); test: cell-based or functional assay
T1 sequence (P40337 whole entry, the tested form may be a part): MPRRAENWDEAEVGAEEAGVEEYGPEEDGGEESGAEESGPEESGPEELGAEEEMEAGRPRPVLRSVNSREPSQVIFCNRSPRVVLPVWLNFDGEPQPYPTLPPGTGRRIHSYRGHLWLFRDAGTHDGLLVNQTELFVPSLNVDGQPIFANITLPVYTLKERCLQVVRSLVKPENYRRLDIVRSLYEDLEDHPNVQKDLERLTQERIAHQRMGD

[2] = target: T2, VHL protein, HA-tagged, in vitro translated from p(HA)VHL (UniProt P40337 1-213); test: in vitro co-immunoprecipitation with anti-VHL, 35S-labeled Gal4 fusion
T2 construct: not shown: HA tag
T2 sequence (P40337 whole entry, the tested form may be a part): as above

[3] = target: T1, VHL protein (endogenous, in Hep3B / 293 …); test: EMSA super-shift with anti-VHL, transfected 293 cells
V5-tagged PHD1/HPH3 = target: T3, V5-tagged PHD1/HPH3 (human, UniProt Q96KS0 1-407, limits assumed); test: co-immunoprecipitation with anti-Gal4, Western blot with anti-V5, 293 cells with Cbz-LLL
T3 construct: V5/His-tagged expression plasmid; not shown: V5/His tag
T3 sequence (Q96KS0 whole entry, the tested form may be a part): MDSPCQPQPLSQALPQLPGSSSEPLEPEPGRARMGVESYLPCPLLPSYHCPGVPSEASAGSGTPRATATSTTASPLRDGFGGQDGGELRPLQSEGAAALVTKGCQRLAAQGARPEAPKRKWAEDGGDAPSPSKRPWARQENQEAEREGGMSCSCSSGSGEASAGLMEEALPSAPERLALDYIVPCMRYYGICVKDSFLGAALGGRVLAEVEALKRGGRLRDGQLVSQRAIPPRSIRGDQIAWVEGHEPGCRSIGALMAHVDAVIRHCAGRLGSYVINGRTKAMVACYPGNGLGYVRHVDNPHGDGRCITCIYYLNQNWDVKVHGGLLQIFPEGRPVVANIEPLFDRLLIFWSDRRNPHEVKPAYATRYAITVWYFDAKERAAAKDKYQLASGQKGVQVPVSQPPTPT

V5-tagged PHD2/HPH2 = target: T4, V5-tagged PHD2/HPH2 (human, UniProt Q9GZT9 1-426, limits assumed); test: as above
T4 construct: V5/His-tagged expression plasmid; also called HIF prolyl-4-hydroxylase; not shown: V5/His tag
T4 sequence (Q9GZT9 whole entry): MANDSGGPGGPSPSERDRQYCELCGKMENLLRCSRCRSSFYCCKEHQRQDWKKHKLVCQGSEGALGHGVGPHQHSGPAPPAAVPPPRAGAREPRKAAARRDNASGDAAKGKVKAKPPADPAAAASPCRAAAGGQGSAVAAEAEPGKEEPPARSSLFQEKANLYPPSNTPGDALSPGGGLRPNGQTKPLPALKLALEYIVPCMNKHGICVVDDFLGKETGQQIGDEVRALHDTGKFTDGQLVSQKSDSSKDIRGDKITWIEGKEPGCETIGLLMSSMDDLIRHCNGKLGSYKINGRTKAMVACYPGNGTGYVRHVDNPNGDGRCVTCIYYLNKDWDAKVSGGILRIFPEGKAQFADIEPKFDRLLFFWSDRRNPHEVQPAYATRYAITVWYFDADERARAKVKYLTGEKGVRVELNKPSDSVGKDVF

Gal4-HIF1α(498-603) = target: B5; test: as above

B1: Gal4-HIF1α(498-574) (other)
chain: MKLLSSIEQACDICRLKKLKCSKEKPKCAKCLKNNWECRYSPKTKRSPLTRAHLTEVESRLERLEQLFLLIFPREDLDMILKMDSLQDIKALLTGLFVQDNVNKDAVTDRLASVETDMPLTLRQHRISATSSSEESSNKGQRQLTVSTPSPSDGSTRQSSPEPNSPSEYCFYVDSDMVNEFKLELVEKLFAEDTEAKNPFSTQDTDLDLEMLAPYIPMDDDFQL
Q: B1 was tested. Which “Gal4 luciferase reporter activity (Hep3B cells), in comparison to Gal4-HIF1α(498-573)” value [1] did it give?
A: 6.5 fold decrease

Q: And the “protein levels under normoxia (Western blot, 293 cells), in comparison to Gal4-HIF1α(498-573)” value [1]?
A: ~3 fold decrease

B2: Gal4-HIF1α(498-574)L574S (other, not shown: large carriers; small tags and cut ends)
chain: TPSPSDGSTRQSSPEPNSPSEYCFYVDSDMVNEFKLELVEKLFAEDTEAKNPFSTQDTDLDLEMLAPYIPMDDDFQS
Q: Does B2 bind [2]?
A: no binding

B3: Gal4-HIF1α(530-573) (other)
chain: MKLLSSIEQACDICRLKKLKCSKEKPKCAKCLKNNWECRYSPKTKRSPLTRAHLTEVESRLERLEQLFLLIFPREDLDMILKMDSLQDIKALLTGLFVQDNVNKDAVTDRLASVETDMPLTLRQHRISATSSSEESSNKGQRQLTVSEFKLELVEKLFAEDTEAKNPFSTQDTDLDLEMLAPYIPMDDDFQ
Q: Does B3 bind [2]?
A: no binding

Q: Does B3 bind [3]?
A: no binding

B4: Gal4-HIF1α(574-603) (other)
chain: MKLLSSIEQACDICRLKKLKCSKEKPKCAKCLKNNWECRYSPKTKRSPLTRAHLTEVESRLERLEQLFLLIFPREDLDMILKMDSLQDIKALLTGLFVQDNVNKDAVTDRLASVETDMPLTLRQHRISATSSSEESSNKGQRQLTVSLRSFDQLSPLESSSASPESASPQSTVTVFQ
Q: Does B4 bind [2]?
A: no binding

Q: Does B5 bind (V5-tagged PHD1/HPH3)?
A: no binding

B6: Gal4-HIF1α(401-603) with Pro-564 mutated to alanine (other, not shown: large carriers; small tags and cut ends)
chain: APAAGDTIISLDFGSNDTETDDQQLEEVPLYNDVMLPSPNEKLQNINLAMSPLPTAETPKPLRSSADPALNQEVALKLEPNPESLELSFTMPQIQDQTPSPSDGSTRQSSPEPNSPSEYCFYVDSDMVNEFKLELVEKLFAEDTEAKNPFSTQDTDLDLEMLAAYIPMDDDFQLRSFDQLSPLESSSASPESASPQSTVTVFQ
Q: Does B6 bind [2]?
A: no binding

B7: Gal4-HIF1α(498-603)L574S (other, not shown: large carriers; small tags and cut ends)
chain: TPSPSDGSTRQSSPEPNSPSEYCFYVDSDMVNEFKLELVEKLFAEDTEAKNPFSTQDTDLDLEMLAPYIPMDDDFQSRSFDQLSPLESSSASPESASPQSTVTVFQ
notes: also called Gal4-C-ODD L574S mutant
Q: Which “Gal4 luciferase reporter activity (Hep3B cells) under oxygenated conditions, in comparison to the wild-type” value [1] does the source give for B7 here?
A: 4.3 fold increase

Q: What about the “expression level (Western blot, 293 cells), in comparison to Gal4-HIF1α(498-603)” value [1] of the same binder?
A: 7 fold increase

Q: Does B7 bind [2]?
A: no binding

Q: Does B7 bind (V5-tagged PHD2/HPH2)?
A: no binding

B8: V5-tagged PHD3/HPH1 (enzyme, human, UniProt Q9H6Z9 1-239, looked up)
chain: MPLGHIMRLDLEKIALEYIVPCLHEVGFCYLDNFLGEVVGDCVLERVKQLHCTGALRDGQLAGPRAGVSKRHLRGDQITWIGGNEEGCEAISFLLSLIDRLVLYCGSRLGKYYVKERSKAMVACYPGNGTGYVRHVDNPNGDGRCITCIYYLNKNWDAKLHGGILRIFPEGKSFIADVEPIFDRLLFFWSDRRNPHEVQPSYATRYAMTVWYFDAEERAEAKKKFRNLTRKTESALTED
notes: V5/His-tagged expression plasmid; not shown: V5/His tag
Q: Does B8 bind (Gal4-HIF1α(498-603))?
A: no binding
